We go through 2 molecules from patent publication US12358999B2, “Protein recognizing drug moiety of antibody-drug conjugate” (DAIICHI SANKYO COMPANY, LIMITED, priority 2018, dated 2025).

One experiment concerns the target T1, topoisomerase I (Homo sapiens, UniProt P11387).
T1 sequence (P11387 1-765): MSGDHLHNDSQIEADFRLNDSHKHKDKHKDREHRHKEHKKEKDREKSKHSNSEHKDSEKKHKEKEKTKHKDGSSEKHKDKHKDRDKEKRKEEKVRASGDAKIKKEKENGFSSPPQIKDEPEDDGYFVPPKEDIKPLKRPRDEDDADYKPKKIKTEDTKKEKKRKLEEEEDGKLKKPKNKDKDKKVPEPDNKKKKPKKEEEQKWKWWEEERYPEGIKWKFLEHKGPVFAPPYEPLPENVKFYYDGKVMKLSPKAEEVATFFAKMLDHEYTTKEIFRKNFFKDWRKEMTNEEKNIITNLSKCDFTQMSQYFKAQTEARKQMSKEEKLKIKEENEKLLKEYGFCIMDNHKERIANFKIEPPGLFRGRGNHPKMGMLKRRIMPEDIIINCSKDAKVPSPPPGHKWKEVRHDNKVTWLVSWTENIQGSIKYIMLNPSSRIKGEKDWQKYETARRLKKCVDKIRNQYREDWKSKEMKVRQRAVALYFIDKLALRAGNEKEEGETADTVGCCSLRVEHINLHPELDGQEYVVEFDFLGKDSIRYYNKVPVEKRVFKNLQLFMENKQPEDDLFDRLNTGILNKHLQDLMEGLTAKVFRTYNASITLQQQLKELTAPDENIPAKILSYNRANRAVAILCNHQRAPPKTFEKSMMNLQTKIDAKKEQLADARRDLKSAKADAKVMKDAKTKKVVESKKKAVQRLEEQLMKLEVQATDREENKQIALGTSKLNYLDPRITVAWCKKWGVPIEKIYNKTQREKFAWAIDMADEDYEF
Conditions: cited from earlier work.

Another experiment relates to mouse antibody 1A3. The experiment in a line: Competitive inhibition with HER2-ADC (I), chemical structure recognized by mouse antibody 1A3 (Gyrolab). Format: binding. The conditions noted are these: compound 1 and 100 μg/mL dilution solutions; response at HER2-ADC (I) 250 ng/mL. An excerpt:
The chemical structure to be recognized by mouse antibody 1A3 was checked by competitive inhibition with HER2-ADC (I) using Gyrolab xP workstation (GYROS PROTEIN Technologies). As the compound for use in competitive inhibition, compound (1), compound (2), compound (7), compound (8), compound (9), compound (10), compound (11), Topotecan and Rubitecan were selected.
As the capture reagent, mouse antibody 1A3 labeled with biotin by a labeling kit (ChromaLink Biotin Protein LABELING Kit, Solulink) was used. The concentration thereof was controlled to be 700 nM with 0.1% PS20-containing PBS. The compounds for use in competitive inhibition, compound (1), compound (2), compound (7), compound (8), compound (9), compound (10), compound (11), Topotecan and Rubitecan were separately dissolved in DMSO. The solutions each was diluted with 10% or 20% DMSO in Rexxip HN (GYROS PROTEIN Technologies) to prepare 0, 1 and 100 μg/mL dilution solutions. To each of them, the 700 nM mouse antibody 1A3 solution was added in an equal amount. The mixture was stirred and allowed to react at room temperature in a dark place for one hour or more. The concentration of HER2-ADC (I) was controlled with Rexxip HN to be 0, 0.244, 0.977, 3.91, 15.6, 62.5, 250 and 1000 ng/mL. As the detection reagent, Mouse Anti-(Anti-HER2 Ab) idiotype Ab (13C1) (IBL) was labeled by DyLight650 (registered trademark) labeling kit and put in use. The concentration thereof was controlled with Rexxip F (GYROS PROTEIN Technologies) to be 10 nM. The above solution was set at Gyrolab xP workstation and measurement was carried out by use of Gyrolab Bioaffy 200 at 200-3W-002-A (PMT5). The regression analysis was carried out by use of Gyrolab Evaluator 3.4.0.24 in 4-parametric logistic model (weight: Response). The calibration curve of HER2-ADC (I) was prepared per concentration of the competitive inhibition compound. The inhibition rate (%) was calculated by comparing the response at an HER2-ADC (I) concentration of 250 ng/mL to that of the case where no compound was added (concentration 0 ng/mL).

In experiment [1] the test system is sera of BALB/c mice and BDF1 mice after immunization. The experiment can be described thus: Inhibition ELISA of immunized mouse sera on immobilized antigen protein (2). Conditions: sera diluted 50000 fold; compound 12.5-100 μg/mL. Type of experiment: binding. Here is the method: To the sera of BALB/c mice (4 individuals) and BDF1 mice (4 individuals) after immunization through four administrations, compound (6), compound (7) and compound (1) as positive controls and compound (8) as a negative control were added and the unabsorption rate to antigen protein (2) was calculated. The mouse sera diluted to 50000 fold and compound (6), compound (8), compound (7) and compound (1), which were prepared to have a concentration of 12.5, 25, 50 and 100 μg/mL, were mixed and allowed to react at 4° C. overnight, and then, added to ELISA immunoplates having the antigen protein (2) immobilized thereon and allowed to react at 37° C. for 30 minutes. After washing, anti-mouse IgG-HRP was allowed to react at 37° C. for 30 minutes. After washing, an OPD solution was added. After termination of color development, absorbance at 490 nm was measured. The unabsorption rate was calculated in accordance with the following expression: Unabsorption rate(%)=(a/b)×100
a: Absorbance of positive control or negative control at an addition concentration of 12.5 μg/mL
b: Absorbance of a sample not containing positive control or a sample not containing a negative control

For a further experiment, the system named is TROP2-ADC (I). The experiment can be described thus: Immunostaining with rabbit chimeric antibody 1A3, FaDu subcutaneous tumor after TROP2-ADC (I). Type of experiment: binding, nude mouse. As to the method: To an immunodeficient mouse (nude mouse), human head and neck cancer cell line FaDu was subcutaneously transplanted. After TROP2-ADC (I) was administered, the tumor tissue was taken to prepare paraffin-embedded specimens. Then, stainability of rabbit chimeric antibody 1A3 was examined. The tumor tissue was taken from a nude mouse to which an anti-TROP2 antibody (an antibody comprising a heavy chain consisting of amino acid sequence of amino acid residues 20 to 470 of SEQ ID NO: 25 and a light chain consisting of amino acid sequence of amino acid residues 21 to 234 of SEQ ID NO: 26, hereinafter referred to as “Anti-TROP2 Ab”) and used as a negative control. Deparaffinization and antigen activation were carried out using Autostainer Link pretreatment system (PT Link, manufactured by DAKO) and an antigen retrieval solution (Target Retrieval Solution Low pH, manufactured by DAKO) at 97° C. for 40 minutes. The following staining operation was carried out using an automatic staining device (Dako Autostainer Link 48: manufactured by DAKO) at room temperature. After washing once with EnVision FLEX WASH BUFFER (manufactured by DAKO), REAL Peroxidase-Blocking Solution (manufactured by DAKO) was added; incubation was carried out for 5 minutes; and washing was carried out once with EnVision FLEX WASH BUFFER. […]

In another experiment the test system is GPR20-ADC (I). The experiment in a line: Immunostaining with rabbit chimeric antibody 1A3, GIST-T1/GPR20 subcutaneous tumor after GPR20-ADC (I). Format: binding, nude mouse.

Take `CC[C@@]1(O)C(=O)OCc2c1cc1n(c2=O)Cc2c-1nc1cc(F)c(C)c3c1c2[C@@H](N)CC3` [compound (1), (1S,9S)-1-amino-9-ethyl-5-fluoro-1,2,3,9,12,15-hexahydro-9-hydroxy-4-methyl-10H,13H-benzo[de]pyrano[3′,4′:6,7]indolizino[1,2-b]quinoline-10,13-dione, reference compound]: the “topoisomerase I inhibitory activity” value at topoisomerase I is listed as “topoisomerase I inhibitory activity”. In addition, in the experiment on mouse antibody 1A3, the “competitive inhibition of recognition of mouse antibody 1A3 to HER2-ADC (I) (inhibition rate, FIG. 41)” value is recorded as “strong competitive inhibition”. The “inhibition effect on binding of mouse sera to antigen protein (2) (unabsorption rate)” value in experiment [1] is “high inhibition effect”.

B1: rabbit chimeric antibody 1A3: rabbit chimeric antibody derived from mouse antibody 1A3; heavy chain SEQ ID NO: 19, light chain SEQ ID NO: 20 (antibody)
heavy: MKHLWFFLLLVAAPRWVLSEVKLVESGGGLVQPGGSRKLSCAASGFTFSDYGMVWIRQAPGRGLEWVAYISSGSSAIYYADTVKGRFTISRDNPKNTLFLQMNSLRSEDSAMYFCARPPRYDVYSAWFAYWGQGTLVTVSAGQPKAPSVFPLAPCCGDTPSSTVTLGCLVKGYLPEPVTVTWNSGTLTNGVRTFPSVRQSSGLYSLSSVVSVTSSSQPVTCNVAHPATNTKVDKTVAPSTCSKPTCPPPELLGGPSVFIFPPKPKDTLMISRTPEVTCVVVDVSQDDPEVQFTWYINNEQVRTARPPLREQQFNSTIRVVSTLPITHQDWLRGKEFKCKVHNKALPAPIEKTISKARGQPLEPKVYTMGPPREELSSRSVSLTCMINGFYPSDISVEWEKNGKAEDNYKTTPAVLDSDGSYFLYNKLSVPTSEWQRGDVFTCSVMHEALHNHYTQKSISRSPGK
light: MVLQTQVFISLLLWISGAYGDIVMTQSHKFMSTSVGDRVSITCKASQDVGSAVVWYQQKPGHSPDLLIYWASTRHTGVPDRFTGSGSGTDFTLTIGNVQSEDLADYFCQQYSSYPVTFGGGTKLEIKRDPVAPSVLLFPPSKEELTTGTATIVCVANKFYPSDITVTWKVDGTTQQSGIENSKTPQSPEDNTYSLSSTLSLTSAQYNSHSVYTCEVVQGSASPIVQSFNRGDC
Turning to B1, the “stainability to subcutaneous tumor tissue” value in the experiment on TROP2-ADC (I) (animal administered with TROP2-ADC (I), antibody 0.1 μg/mL) is listed as “satisfactory stainability”; with TROP2-ADC (I) (animal administered with anti-TROP2 Ab (negative control tissue)), “did not show stainability”; with GPR20-ADC (I) (animal administered with GPR20-ADC (I)), “satisfactory stainability”; in the experiment on GPR20-ADC (I) (animal not administered with GPR20-ADC (I)), “did not show stainability”.
